Earlier results on one substance are cited in publication PMC6829319.

As usually defined, the Kd is the concentration at which binding is half-saturated.

The target of this data set is CdiA toxin (Escherichia coli) (UniProt Q0T963).
CdiA toxin (Escherichia coli), sequence (Q0T963 3016-3242): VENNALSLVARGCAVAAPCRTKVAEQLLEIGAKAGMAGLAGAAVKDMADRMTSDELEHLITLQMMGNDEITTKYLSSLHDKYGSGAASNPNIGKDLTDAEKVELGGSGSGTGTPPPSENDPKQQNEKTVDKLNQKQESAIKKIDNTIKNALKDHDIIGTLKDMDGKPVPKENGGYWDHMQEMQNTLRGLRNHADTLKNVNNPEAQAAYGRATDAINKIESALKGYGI

CysK, sequence (P0ABK5 2-323): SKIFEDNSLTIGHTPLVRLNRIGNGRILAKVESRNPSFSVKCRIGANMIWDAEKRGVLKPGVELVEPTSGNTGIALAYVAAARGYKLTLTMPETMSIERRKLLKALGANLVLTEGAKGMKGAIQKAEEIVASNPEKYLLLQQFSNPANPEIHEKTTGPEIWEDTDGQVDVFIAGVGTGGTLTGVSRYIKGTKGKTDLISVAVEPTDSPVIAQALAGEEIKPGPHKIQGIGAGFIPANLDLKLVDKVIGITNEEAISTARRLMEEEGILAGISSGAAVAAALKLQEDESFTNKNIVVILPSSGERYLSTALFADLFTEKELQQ

For CysK (from UniProt P0ABK5), the Kd is 5 nM.
